Measured values as given in US20030108554A1 (published 2003).

Tests used:
[1] = biological target: T1, Goodpasture antigen binding protein (GPBP) (UniProt Q9Y5P4 1-624); assay: yeast two-hybrid
T1 construct: Protein kinase; Fusion parts are not written as pieces
T1 sequence (looked up): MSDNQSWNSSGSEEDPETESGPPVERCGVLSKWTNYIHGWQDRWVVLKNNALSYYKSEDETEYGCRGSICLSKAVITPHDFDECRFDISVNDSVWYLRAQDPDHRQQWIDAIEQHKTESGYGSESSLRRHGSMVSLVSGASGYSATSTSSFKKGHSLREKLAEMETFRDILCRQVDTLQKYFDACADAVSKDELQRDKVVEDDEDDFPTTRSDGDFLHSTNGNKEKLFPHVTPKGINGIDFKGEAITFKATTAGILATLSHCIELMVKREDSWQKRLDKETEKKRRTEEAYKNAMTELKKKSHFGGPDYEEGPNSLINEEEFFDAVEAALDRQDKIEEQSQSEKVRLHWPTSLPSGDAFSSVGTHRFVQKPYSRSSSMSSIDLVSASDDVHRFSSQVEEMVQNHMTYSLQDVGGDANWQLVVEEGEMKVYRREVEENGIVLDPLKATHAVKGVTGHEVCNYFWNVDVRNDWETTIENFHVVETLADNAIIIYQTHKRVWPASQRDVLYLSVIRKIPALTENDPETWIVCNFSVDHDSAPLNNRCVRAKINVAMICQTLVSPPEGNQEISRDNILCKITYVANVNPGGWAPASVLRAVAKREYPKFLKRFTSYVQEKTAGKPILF

pol κ = biological target: T2, pol κ (UniProt Q9UBT6 1-870); assay: yeast two-hybrid
T2 construct: Tested in yeast two-hybrid (GAL4 domain fusion); also called primary protein product of the POLK
T2 sequence (looked up): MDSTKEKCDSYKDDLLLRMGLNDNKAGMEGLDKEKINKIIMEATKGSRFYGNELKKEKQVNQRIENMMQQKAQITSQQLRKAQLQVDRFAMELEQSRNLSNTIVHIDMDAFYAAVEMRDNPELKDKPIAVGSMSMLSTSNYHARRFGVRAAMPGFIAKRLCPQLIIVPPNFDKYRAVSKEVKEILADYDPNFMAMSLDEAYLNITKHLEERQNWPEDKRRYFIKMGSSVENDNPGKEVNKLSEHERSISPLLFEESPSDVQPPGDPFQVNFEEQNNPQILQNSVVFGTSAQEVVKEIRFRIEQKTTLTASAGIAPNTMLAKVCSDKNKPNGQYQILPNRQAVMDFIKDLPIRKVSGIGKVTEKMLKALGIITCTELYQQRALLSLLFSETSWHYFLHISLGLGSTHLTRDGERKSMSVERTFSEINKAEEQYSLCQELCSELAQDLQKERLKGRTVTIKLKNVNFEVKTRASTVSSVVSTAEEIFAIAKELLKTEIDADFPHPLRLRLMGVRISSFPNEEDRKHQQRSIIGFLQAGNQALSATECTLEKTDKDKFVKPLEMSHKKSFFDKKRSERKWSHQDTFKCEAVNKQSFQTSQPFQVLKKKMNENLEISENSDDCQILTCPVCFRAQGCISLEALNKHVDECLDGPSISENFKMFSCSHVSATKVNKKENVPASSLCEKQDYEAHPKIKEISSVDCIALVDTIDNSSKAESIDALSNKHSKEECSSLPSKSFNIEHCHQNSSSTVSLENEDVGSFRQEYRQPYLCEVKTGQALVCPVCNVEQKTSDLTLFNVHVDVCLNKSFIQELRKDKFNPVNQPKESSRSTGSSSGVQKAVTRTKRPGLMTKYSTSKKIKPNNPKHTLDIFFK

[2] = biological target: the molecule itself; assay: yeast two-hybrid with I-20 deletion mutants
Protocol: The production of additional I-20 deletion mutants and their use in specific two hybrid studies permitted the identification of two specific regions of I-20 that are essential for GPBP interaction as well as the identification of other residues directly involved but not essential for the interaction (FIG. 4).
Deletion mutants were obtained using specific primers and PCR, followed by cloning of the resulting cDNAs in the pGBT9 and pGAD424 vectors. The assays were performed in SFY526 or HF7c Saccharomyces cerevisiae strains, with pGBT9 as GAL4 binding domain vector and pGAD424 as GAL4 activation domain vector, by the lift colony assay procedure. Briefly, the yeast cells were co-transformed with constructs of both binding domain and activation domain vectors, and the co-transformants were selected in medium deficient in both tryptophan and leucine. After five days of incubation at 30° C. the colonies were tested for the expression of β-galactosidase with X-Gal substrate (0.75 mg/ml). […] When the assays were performed with the HF7c strain, the interactions were assessed by the lift colony assay procedure and by growth in medium deficient in histidine, tryptophan and leucine.

[3] = biological target: T1, Goodpasture antigen binding protein …; assay: yeast two-hybrid, β-galactosidase colony lift
Protocol: Deletion mutants were obtained using specific primers and PCR, followed by cloning of the resulting cDNAs in the pGBT9 and pGAD424 vectors. The assays were performed in SFY526 or HF7c Saccharomyces cerevisiae strains, with pGBT9 as GAL4 binding domain vector and pGAD424 as GAL4 activation domain vector, by the lift colony assay procedure. Briefly, the yeast cells were co-transformed with constructs of both binding domain and activation domain vectors, and the co-transformants were selected in medium deficient in both tryptophan and leucine. After five days of incubation at 30° C. the colonies were tested for the expression of β-galactosidase with X-Gal substrate (0.75 mg/ml). […] When the assays were performed with the HF7c strain, the interactions were assessed by the lift colony assay procedure and by growth in medium deficient in histidine, tryptophan and leucine. For yeast three-hybrid system, we used the pBRIDGE vector, which allows the conditional expression of a third protein apart from the usual GAL4 binding and activation domain-fusion proteins of the two-hybrid system. In this case, the expression of GPBP or I-20 or GIP90 was driven by Met25 promoter, active in absence of methionine. In these experiments, the transformed SFY526 cells were plated in medium deficient in tryptophan, leucine and methionine, and subjected to the colony lift assay after five days at 30° C. […]

B1: GIP90 with deletion of the N terminal 240-residues (other)
chain: MVVDEQQRLTAQLTLQRQKIQELTTNAKETHTKLALAEARVQEEEQKATRLEKELQTQTTKFHQDQDTIMAKLTNEDSQNRQLQQKLAALSRQIDELEETNRSLRKAEEELQDIKEKISKGEYGNAGIMAEVEELRKRVLDMEGKDEELIKMEEQCRDLNKRLERETLQSKDFKLEVEKLSKRIMALEKLEDAFNKSKQECYSLKCNLEKERMTTKQLSQELESLKVRIKELEAIESRLEKTEFTLKEDLTKLKTLTVMFVDERKTMSEKLKKTEDKLQAASSQLQVEQNKVTTVTEKLIEETKRALKSKTDVEEKMYSVTKERDDLKNKLKAEEEKGNDLLSRVNMLKNRLQSLEAIEKDFLKNKLNQDSGKSTTALHQENNKIKELSQEVERLKLKLKDMKAIEDDLMKTEDEYETLERRYANERDKAQFLSKELEHVKMELAKYKLAEKTETSHEQWLFKRLQEEEAKSGHLSREVDALKEKIHEYMATEDLICHLQGDHSVLQKKTKSTRKQEQRFRKRD
notes: Deletion mutant in yeast two-hybrid (GAL4 domain fusion)
- binding result [1]: no binding

B2: I-20 (other)
chain: RDEVIGILKAEKMDLALLEAQYGFVTPKKVLEALQRDAFQAKSTPWQEDIYEKPMNELDKVVEKHKESYRRILGQLLVAEKSRRQTILELEEEKRKHKEYMEKSDEFICLLEQECERLKKLIDQEIKSQEEKEQEKEKRVTTLKEELTKLKSFALMVVDEQQRLTAQLTLQRQKIQELTTNAKETHTKLALAEARVQEEEQKATRLEKELQTQTTKFHQDQDTIMAKLTNEDSQNRQLQQKLAALSRQIDELEETNRSLRKAEEE
notes: Tested as GAL4 domain fusion in yeast two-hybrid and three-hybrid; fusion parts are not written as pieces; also called 265 residue polypeptide I-20
- binding result (pol κ): no binding
- binding result [2]: binds
- binding result [3]: binds
